Assay results reported in publication PMC2753885 (Biochemistry, 2009).
Where two headings read alike, the source gives them in different places. One block for each binder: values may come before it.

What was measured:
Test in all cases: rapid-quench phosphotransfer kinetics
[1] = molecular target: T1, SSK1 response regulator (receiver) domain, SSK1-R2 (S. cerevisiae, UniProt Q07084 495-712)
T1 sequence (looked up): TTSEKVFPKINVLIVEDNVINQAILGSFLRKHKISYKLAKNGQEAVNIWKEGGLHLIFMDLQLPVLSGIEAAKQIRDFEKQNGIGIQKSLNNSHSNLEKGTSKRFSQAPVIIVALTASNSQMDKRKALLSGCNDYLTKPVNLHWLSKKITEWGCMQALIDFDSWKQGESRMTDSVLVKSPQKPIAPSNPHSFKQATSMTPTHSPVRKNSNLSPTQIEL

[2] = molecular target: T1, SSK1 response regulator (receiver) …; remark: listed apart in the source
[3] = molecular target: T1, SSK1 response regulator (receiver) …; remark: listed apart in the source
[4] = molecular target: T1, SSK1 response regulator (receiver) …; remark: listed apart in the source
[5] = molecular target: T1, SSK1 response regulator (receiver) …; remark: listed apart in the source
[6] = molecular target: T1, SSK1 response regulator (receiver) …; remark: listed apart in the source
[7] = molecular target: T1, SSK1 response regulator (receiver) …; remark: listed apart in the source
[8] = molecular target: T1, SSK1 response regulator (receiver) …; remark: listed apart in the source
[9] = molecular target: T1, SSK1 response regulator (receiver) …; remark: listed apart in the source
[10] = molecular target: T1, SSK1 response regulator (receiver) …; remark: listed apart in the source
[11] = molecular target: T2, YPD1, histidine-containing phosphotransfer (HPt) protein (S. cerevisiae, UniProt Q07688 1-167)
T2 sequence (looked up): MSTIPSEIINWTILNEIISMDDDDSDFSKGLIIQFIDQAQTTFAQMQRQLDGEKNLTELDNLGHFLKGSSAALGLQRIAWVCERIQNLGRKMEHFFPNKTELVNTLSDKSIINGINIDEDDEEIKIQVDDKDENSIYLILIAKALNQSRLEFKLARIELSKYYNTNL

[12] = molecular target: T2, YPD1, histidine-containing …; remark: listed apart in the source
[13] = molecular target: T2, YPD1, histidine-containing …; remark: listed apart in the source
[14] = molecular target: T2, YPD1, histidine-containing …; remark: listed apart in the source
[15] = molecular target: T2, YPD1, histidine-containing …; remark: listed apart in the source
[16] = molecular target: T2, YPD1, histidine-containing …; remark: listed apart in the source
[17] = molecular target: T2, YPD1, histidine-containing …; remark: listed apart in the source
[18] = molecular target: T2, YPD1, histidine-containing …; remark: listed apart in the source
[19] = molecular target: T2, YPD1, histidine-containing …; remark: listed apart in the source
[20] = molecular target: T2, YPD1, histidine-containing …; remark: listed apart in the source

Kd [1]: 11.5 µM
Kd [2]: 1.4 µM
Kd [3]: 3.8 µM
Kd [4]: 2.1 µM
Kd [5]: 4.3 µM
Kd [6]: 3 µM
Kd [7]: 4.3 µM
Kd [8]: 4.4 µM
Kd [9]: 4 µM
Kd [10]: 2.2 µM
B1: phosphorylated YPD1, YPD1∼P (natural protein, S. cerevisiae, UniProt Q07688 1-167, looked up)
chain: T2 sequence (looked up)
modifications: phosphorylated (32P) by phosphotransfer from GST-SLN1-HK-R1; residue not given

Kd [11]: 18 µM
Kd [12]: 2.6 µM
Kd [13]: 2.8 µM
Kd [14]: 4.6 µM
Kd [15]: 2.7 µM
Kd [16]: 6.2 µM
Kd [17]: 2.3 µM
Kd [18]: 3.2 µM
Kd [19]: 10 µM
Kd [20]: 2.3 µM
B2: phosphorylated SLN1 response regulator (receiver) domain, SLN1-R1∼P (domain or fragment, S. cerevisiae, UniProt P39928 1084-1220, looked up)
chain: NETSVKILVVEDNHVNQEVIKRMLNLEGIENIELACDGQEAFDKVKELTSKGENYNMIFMDVQMPKVDGLLSTKMIRRDLGYTSPIVALTAFADDSNIKECLESGMNGFLSKPIKRPKLKTILTEFCAAYQGKKNNK
modifications: phosphorylated (32P) by phosphotransfer from phospho-SLN1-HK; residue not printed for this domain
